The source of these data is paper PMC12099056, “Targeting the Exonic Circular OGT RNA/O-GlcNAc Transferase/Forkhead Box C1 Axis Inhibits Asparagine- and Alanine-Mediated Ferroptosis Repression in Neuroblastoma Progression” (Research, 2025).

The nature of series [1]: Western blot of FOXC1 level. The settings on record: glycan lost; control: mock, sh-Scb or untreated. A general note: In western blotting, separated proteins are transferred to a membrane and probed.
Series [2] is described as follows: CHX chase Western blot (protein stability). The following applies: glycan lost; control: untreated.
Series [3] is described as follows: CHX chase Western blot (protein stability), SH-SY5Y. The settings on record: glycan lost; control: sh-Scb.
Series [4] deals with T1, recombinant GST-tagged OGT (wild-type) (human, UniProt O15294 1-1046).
T1 construct: O-GlcNAc transferase (OGT), human cDNA (printed as 3,131 bp) from Genechem; wild-type construct as against truncations
T1 sequence (looked up): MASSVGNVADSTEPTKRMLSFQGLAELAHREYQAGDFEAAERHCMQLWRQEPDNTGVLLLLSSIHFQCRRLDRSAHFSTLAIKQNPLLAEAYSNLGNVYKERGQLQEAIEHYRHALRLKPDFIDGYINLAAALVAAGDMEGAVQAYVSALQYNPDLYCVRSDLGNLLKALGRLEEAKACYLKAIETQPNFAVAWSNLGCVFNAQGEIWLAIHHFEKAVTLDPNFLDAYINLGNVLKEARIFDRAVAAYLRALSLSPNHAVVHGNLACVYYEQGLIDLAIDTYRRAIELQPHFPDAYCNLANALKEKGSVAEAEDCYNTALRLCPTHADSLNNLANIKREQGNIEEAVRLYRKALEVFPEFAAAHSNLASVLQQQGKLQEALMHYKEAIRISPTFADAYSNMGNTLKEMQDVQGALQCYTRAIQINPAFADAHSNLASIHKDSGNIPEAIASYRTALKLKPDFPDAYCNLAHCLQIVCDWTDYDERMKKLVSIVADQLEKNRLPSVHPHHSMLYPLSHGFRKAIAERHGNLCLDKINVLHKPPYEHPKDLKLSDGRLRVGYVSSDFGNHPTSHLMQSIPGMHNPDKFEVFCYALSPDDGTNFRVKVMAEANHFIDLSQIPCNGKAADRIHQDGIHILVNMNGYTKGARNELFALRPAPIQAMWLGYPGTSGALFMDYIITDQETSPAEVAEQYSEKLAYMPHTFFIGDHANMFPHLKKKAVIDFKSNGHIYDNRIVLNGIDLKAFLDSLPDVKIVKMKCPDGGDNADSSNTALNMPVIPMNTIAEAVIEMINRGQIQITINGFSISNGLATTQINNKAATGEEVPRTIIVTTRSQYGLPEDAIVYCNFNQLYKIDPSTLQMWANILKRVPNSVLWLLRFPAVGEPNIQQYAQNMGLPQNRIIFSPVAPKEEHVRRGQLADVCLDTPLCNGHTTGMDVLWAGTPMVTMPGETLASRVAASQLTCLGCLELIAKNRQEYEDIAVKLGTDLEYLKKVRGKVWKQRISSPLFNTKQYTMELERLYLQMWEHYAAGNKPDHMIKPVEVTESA
Briefly: co-IP; recombinant GST-tagged OGT and MBP-tagged FOXC1 proteins (wild-type or truncations), co-IP and Western blot. The settings on record: both partners purified.

Series [5] is described as follows: dual-luciferase FOXC1 reporter, SH-SY5Y. The following applies: glycan lost; control: wild-type Flag-FOXC1.

B1: forkhead box C1 (FOXC1): sh-OGT (protein)
parent chain: MQARYSVSSPNSLGVVPYLGGEQSYYRAAAAAAGGGYTAMPAPMSVYSHPAHAEQYPGGMARAYGPYTPQPQPKDMVKPPYSYIALITMAIQNAPDKKITLNGIYQFIMDRFPFYRDNKQGWQNSIRHNLSLNECFVKVPRDDKKPGKGSYWTLDPDSYNMFENGSFLRRRRRFKKKDAVKDKEEKDRLHLKEPPPPGRQPPPAPPEQADGNAPGPQPPPVRIQDIKTENGTCPSPPQPLSPAAALGSGSAAAVPKIESPDSSSSSLSSGSSPPGSLPSARPLSLDGADSAPPPPAPSAPPPHHSQGFSVDNIMTSLRGSPQSAAAELSSGLLASAAASSRAGIAPPLALGAYSPGQSSLYSSPCSQTSSAGSSGGGGGGAGAAGGAGGAGTYHCNLQAMSLYAAGERGGHLQGAPGGAGGSAVDDPLPDYSLPPVTSSSSSSLSHGGGGGGGGGGQEAGHHPAAHQGRLTSWYLNQAGGDLGHLASAAAAAAAAGYPGQQQNFHSVREMFESQRIGLNNSPVNGNSSCQMAFPSSQSLYRTSGAFVYDCSKF
For B1, the expression_or_secretion result in series [1] is given as “decreases”.

B2: forkhead box C1 (FOXC1): OSMI-1 (protein)
parent chain: B1 parent chain
With B2, the expression_or_secretion entry in series [1] was “decreases”. The degradation_or_half_life result in series [2] is given as “decreases”.

B3: forkhead box C1 (FOXC1): sh-OGT #1 (protein)
parent chain: B1 parent chain
With B3, the degradation_or_half_life result in series [3] is listed as “decreases”.

B4: recombinant MBP-tagged FOXC1 (wild-type) (natural protein, human, UniProt Q12948 1-553, looked up)
chain: B1 parent chain
notes: forkhead box C1 (FOXC1), human cDNA (1,662 bp) from Genechem; wild-type construct as against truncations; the printed AD1 domain is residues 1 to 68; a cDNA of 1,662 bp fits 553 codons and a stop codon
Take B4: in series [4], the binding result is reported as “binds”.

B5: forkhead box C1 (FOXC1): S8A (protein)
parent chain: B1 parent chain
As to B5, the “other: transcriptional activity” value in series [5] is recorded as “decreases”.
